Source: PMC9668737, “Herpes simplex virus 1 protein pUL21 alters ceramide metabolism by activating the interorganelle transport protein CERT” (The Journal of Biological Chemistry, 2022)
Values joined by “and” are separate entries in the source; they are usually repeats but may differ in a detail not shown here. Equal values may be shown once.

Tests used:
Details in all cases: both partners purified
pUL21-H6 (HSV-1 pUL21) = target: T1, pUL21-H6 (HSV-1 pUL21) (herpes simplex virus 1, UniProt F8RG07 1-535); experiment: ITC; CERTL forms in the syringe titrated into pUL21 forms in the cell; 25 °C; 20 mM Tris pH 8.5, 500 mM NaCl, 0.5 mM TCEP; one-site binding model; single titrations
T1 construct: tegument protein pUL21 of herpes simplex virus 1, UniProt F8RG07; source: E. coli T7 Express lysY/Iq, purified (Ni-NTA, SEC); not shown: His6, C-terminal, kept
T1 sequence: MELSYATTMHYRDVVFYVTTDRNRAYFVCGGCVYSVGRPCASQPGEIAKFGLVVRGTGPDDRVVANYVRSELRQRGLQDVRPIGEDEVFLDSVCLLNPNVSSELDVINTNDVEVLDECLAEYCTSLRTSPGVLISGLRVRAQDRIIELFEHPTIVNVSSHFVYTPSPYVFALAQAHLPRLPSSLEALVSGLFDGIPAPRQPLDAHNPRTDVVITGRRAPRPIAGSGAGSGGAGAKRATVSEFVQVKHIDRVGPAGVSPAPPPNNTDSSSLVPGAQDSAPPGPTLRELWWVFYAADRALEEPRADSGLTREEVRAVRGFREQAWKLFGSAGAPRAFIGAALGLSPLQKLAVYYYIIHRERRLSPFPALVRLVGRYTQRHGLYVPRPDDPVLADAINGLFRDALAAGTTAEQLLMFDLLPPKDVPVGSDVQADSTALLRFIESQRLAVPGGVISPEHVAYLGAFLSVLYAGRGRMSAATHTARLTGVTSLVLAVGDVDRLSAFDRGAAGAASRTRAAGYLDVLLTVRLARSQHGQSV

[1] = target: T2, H6-pUL21C (C-terminal domain of HSV-1 pUL21, amino acids 275 to 535) (herpes simplex virus 1, UniProt F8RG07 275-535); experiment: as above
T2 construct: C-terminal domain of pUL21 of herpes simplex virus 1, residues 275-535 of UniProt F8RG07; source: E. coli T7 Express lysY/Iq, purified (Ni-NTA, SEC); not shown: MAH6, N-terminal, kept
T2 sequence: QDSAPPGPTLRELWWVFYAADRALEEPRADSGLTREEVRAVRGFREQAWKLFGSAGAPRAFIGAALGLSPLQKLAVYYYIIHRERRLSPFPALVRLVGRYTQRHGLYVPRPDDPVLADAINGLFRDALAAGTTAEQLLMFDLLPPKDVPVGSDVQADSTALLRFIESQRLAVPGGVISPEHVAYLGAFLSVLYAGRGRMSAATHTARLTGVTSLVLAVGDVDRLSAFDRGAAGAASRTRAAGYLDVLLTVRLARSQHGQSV

[2] = target: T3, pUL21^V382E-H6 (HSV-1 pUL21 with V382E) (herpes simplex virus 1, UniProt F8RG07 1-535, V382E); experiment: as above
T3 construct: tegument protein pUL21 of herpes simplex virus 1, UniProt F8RG07, with V382E; the text also writes H6-pUL21^V382E; also called H6-pUL21^V382E; source: E. coli T7 Express lysY/Iq, purified (Ni-NTA, SEC); not shown: His6, C-terminal, kept
T3 sequence: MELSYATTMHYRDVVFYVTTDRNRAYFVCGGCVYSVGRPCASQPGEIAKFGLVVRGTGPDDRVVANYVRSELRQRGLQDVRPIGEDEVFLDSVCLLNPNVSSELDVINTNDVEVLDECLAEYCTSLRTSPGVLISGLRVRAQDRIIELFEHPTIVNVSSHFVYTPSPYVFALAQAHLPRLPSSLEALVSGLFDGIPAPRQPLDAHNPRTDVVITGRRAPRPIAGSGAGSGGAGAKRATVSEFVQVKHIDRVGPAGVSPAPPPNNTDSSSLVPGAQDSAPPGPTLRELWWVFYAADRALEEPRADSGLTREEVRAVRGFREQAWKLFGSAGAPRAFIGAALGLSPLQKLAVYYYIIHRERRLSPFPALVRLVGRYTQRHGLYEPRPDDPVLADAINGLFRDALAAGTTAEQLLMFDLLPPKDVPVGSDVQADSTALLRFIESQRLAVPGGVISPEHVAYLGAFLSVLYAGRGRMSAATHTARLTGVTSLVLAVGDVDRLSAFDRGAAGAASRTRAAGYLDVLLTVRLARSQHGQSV

H6-pUL21C = target: T4, H6-pUL21C (herpes simplex virus 1 (HSV-1), UniProt F8RG07 275-535); experiment: ITC; 25 °C; 20 mM Tris pH 8.5, 500 mM NaCl, 0.5 mM TCEP; CERTL forms in the syringe titrated into pUL21 forms in the cell; one-site binding model
T4 construct: HSV-1 pUL21 C-terminal domain, amino acids 275-535, UniProt F8RG07; Cloned in pOPTH; Monomer by SEC-MALS and SAXS; also called C-terminal domain of pUL21; source: E. coli T7 Express lysY/Iq, purified (Ni-NTA, SEC); not shown: MAH6, N-terminal, kept
T4 sequence: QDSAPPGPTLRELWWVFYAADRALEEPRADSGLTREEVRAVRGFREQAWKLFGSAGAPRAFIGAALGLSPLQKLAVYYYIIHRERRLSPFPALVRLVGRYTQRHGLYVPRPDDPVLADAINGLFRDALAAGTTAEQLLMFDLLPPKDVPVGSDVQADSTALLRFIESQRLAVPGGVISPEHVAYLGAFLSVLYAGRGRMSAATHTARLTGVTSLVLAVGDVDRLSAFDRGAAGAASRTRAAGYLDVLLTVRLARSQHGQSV

pUL21^V382E-H6 = target: T5, pUL21^V382E-H6 (herpes simplex virus 1 (HSV-1), UniProt F8RG07 1-535, V382E); experiment: as above
T5 construct: HSV-1 pUL21, UniProt F8RG07, V382E; the results text prints H6-pUL21^V382E; also called H6-pUL21^V382E; source: E. coli T7 Express lysY/Iq, purified (Ni-NTA, SEC); not shown: His6, C-terminal, kept
T5 sequence: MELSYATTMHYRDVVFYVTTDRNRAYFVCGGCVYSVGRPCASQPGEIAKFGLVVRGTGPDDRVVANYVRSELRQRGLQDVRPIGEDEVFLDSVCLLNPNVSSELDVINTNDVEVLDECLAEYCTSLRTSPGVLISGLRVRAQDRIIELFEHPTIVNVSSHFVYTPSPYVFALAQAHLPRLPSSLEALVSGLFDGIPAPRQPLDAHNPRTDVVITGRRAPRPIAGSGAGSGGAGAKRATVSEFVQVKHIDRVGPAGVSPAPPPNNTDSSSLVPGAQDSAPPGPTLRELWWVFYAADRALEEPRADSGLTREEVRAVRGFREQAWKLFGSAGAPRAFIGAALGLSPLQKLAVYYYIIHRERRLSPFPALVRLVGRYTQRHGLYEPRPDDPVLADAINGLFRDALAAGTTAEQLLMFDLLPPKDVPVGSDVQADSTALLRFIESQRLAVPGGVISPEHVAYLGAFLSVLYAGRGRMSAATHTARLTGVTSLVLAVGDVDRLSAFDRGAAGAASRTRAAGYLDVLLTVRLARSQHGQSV

pUL21-H6 = target: T6, pUL21-H6 (herpes simplex virus 1 (HSV-1), UniProt F8RG07 1-535); experiment: as above
T6 construct: HSV-1 pUL21, UniProt F8RG07; some paragraphs print H6-pUL21; also called H6-pUL21; WT pUL21; source: E. coli T7 Express lysY/Iq, purified (Ni-NTA, SEC); not shown: His6, C-terminal, kept
T6 sequence: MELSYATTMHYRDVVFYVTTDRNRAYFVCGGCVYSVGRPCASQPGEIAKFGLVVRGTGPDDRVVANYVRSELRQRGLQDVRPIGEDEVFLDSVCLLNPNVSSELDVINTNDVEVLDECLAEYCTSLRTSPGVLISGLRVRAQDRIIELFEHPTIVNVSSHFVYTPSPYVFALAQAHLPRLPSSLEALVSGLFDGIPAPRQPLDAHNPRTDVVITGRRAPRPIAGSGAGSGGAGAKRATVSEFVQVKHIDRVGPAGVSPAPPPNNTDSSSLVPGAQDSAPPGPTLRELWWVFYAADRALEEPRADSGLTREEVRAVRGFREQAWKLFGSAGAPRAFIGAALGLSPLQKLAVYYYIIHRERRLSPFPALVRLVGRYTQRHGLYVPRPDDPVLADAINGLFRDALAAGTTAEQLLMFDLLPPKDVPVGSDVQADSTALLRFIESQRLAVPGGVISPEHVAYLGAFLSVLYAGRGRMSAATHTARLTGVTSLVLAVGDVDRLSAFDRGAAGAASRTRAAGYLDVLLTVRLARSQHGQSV

B1: StrepII-CERTL^S132A (constitutively hypophosphorylated human CERTL) (natural protein, UniProt Q9Y5P4-1 1-624, looked up)
chain: MSDNQSWNSSGSEEDPETESGPPVERCGVLSKWTNYIHGWQDRWVVLKNNALSYYKSEDETEYGCRGSICLSKAVITPHDFDECRFDISVNDSVWYLRAQDPDHRQQWIDAIEQHKTESGYGSESSLRRHGAMVSLVSGASGYSATSTSSFKKGHSLREKLAEMETFRDILCRQVDTLQKYFDACADAVSKDELQRDKVVEDDEDDFPTTRSDGDFLHSTNGNKEKLFPHVTPKGINGIDFKGEAITFKATTAGILATLSHCIELMVKREDSWQKRLDKETEKKRRTEEAYKNAMTELKKKSHFGGPDYEEGPNSLINEEEFFDAVEAALDRQDKIEEQSQSEKVRLHWPTSLPSGDAFSSVGTHRFVQKPYSRSSSMSSIDLVSASDDVHRFSSQVEEMVQNHMTYSLQDVGGDANWQLVVEEGEMKVYRREVEENGIVLDPLKATHAVKGVTGHEVCNYFWNVDVRNDWETTIENFHVVETLADNAIIIYQTHKRVWPASQRDVLYLSVIRKIPALTENDPETWIVCNFSVDHDSAPLNNRCVRAKINVAMICQTLVSPPEGNQEISRDNILCKITYVANVNPGGWAPASVLRAVAKREYPKFLKRFTSYVQEKTAGKPILF
notes: ceramide transport protein CERT, longer cytoplasmic isoform CERTL, human, UniProt Q9Y5P4-1, with S132A; source: Freestyle 293F cells, stably transfected, doxycycline-induced, purified (StrepTrap, SEC); not shown: StrepII, N-terminal, kept
stoichiometry N (pUL21-H6 (HSV-1 pUL21)): 0.93 and 1.01

B2: H6-miniCERTL (CERTL residues 20-131 plus 351-624) (domain or fragment, human, UniProt Q9Y5P4-1 20-131, looked up)
chain: SGPPVERCGVLSKWTNYIHGWQDRWVVLKNNALSYYKSEDETEYGCRGSICLSKAVITPHDFDECRFDISVNDSVWYLRAQDPDHRQQWIDAIEQHKTESGYGSESSLRRHGTSLPSGDAFSSVGTHRFVQKPYSRSSSMSSIDLVSASDDVHRFSSQVEEMVQNHMTYSLQDVGGDANWQLVVEEGEMKVYRREVEENGIVLDPLKATHAVKGVTGHEVCNYFWNVDVRNDWETTIENFHVVETLADNAIIIYQTHKRVWPASQRDVLYLSVIRKIPALTENDPETWIVCNFSVDHDSAPLNNRCVRAKINVAMICQTLVSPPEGNQEISRDNILCKITYVANVNPGGWAPASVLRAVAKREYPKFLKRFTSYVQEKTAGKPILF
notes: human CERTL, PH domain and start of the middle region, residues 20-131 of Q9Y5P4-1; human CERTL, end of the middle region and STARTL domain, residues 351-624 of Q9Y5P4-1 (middle region residues 132-350 left out); source: E. coli T7 Express lysY/Iq, purified (Ni-NTA, SEC); not shown: MAH6, N-terminal, kept
Kd [1]: 5.5 µM and 3.15 µM | stoichiometry N [1]: 0.95 and 1 | Kd [2]: 8.39 µM and 8.83 µM and 7.04 µM | stoichiometry N [2]: 1.22 and 1.01 and 1.25

B3: H6-miniCERTL (domain or fragment, human, UniProt Q9Y5P4-1 20-624, looked up)
chain: SGPPVERCGVLSKWTNYIHGWQDRWVVLKNNALSYYKSEDETEYGCRGSICLSKAVITPHDFDECRFDISVNDSVWYLRAQDPDHRQQWIDAIEQHKTESGYGSESSLRRHGTSLPSGDAFSSVGTHRFVQKPYSRSSSMSSIDLVSASDDVHRFSSQVEEMVQNHMTYSLQDVGGDANWQLVVEEGEMKVYRREVEENGIVLDPLKATHAVKGVTGHEVCNYFWNVDVRNDWETTIENFHVVETLADNAIIIYQTHKRVWPASQRDVLYLSVIRKIPALTENDPETWIVCNFSVDHDSAPLNNRCVRAKINVAMICQTLVSPPEGNQEISRDNILCKITYVANVNPGGWAPASVLRAVAKREYPKFLKRFTSYVQEKTAGKPILF
notes: human CERTL, UniProt Q9Y5P4-1, residues 20-131 plus 351-624 (PH and STARTL domains joined by a retained 23 amino acid stretch of the middle region); Cloned into pOPTH; Monomer by SEC-MALS; source: E. coli T7 Express lysY/Iq, purified (Ni-NTA, SEC); not shown: MAH6, N-terminal, kept
dH (H6-pUL21C): -3.84 kcal/mol | stoichiometry N (H6-pUL21C): 0.97 | Kd (pUL21^V382E-H6): 8.09 µM | dH (pUL21^V382E-H6): -7.2 kcal/mol | stoichiometry N (pUL21^V382E-H6): 1.16 | Kd (pUL21-H6): 1.04 µM | dH (pUL21-H6): -8.65 kcal/mol | stoichiometry N (pUL21-H6): 0.89
